According to patent US20230220067A1 (Johns Hopkins, published 2023):
Numbering of substitutions follows the chain as printed. Each block holds one binder with its values, some of them ahead of it.

Assays:
[1] = biological target: T1, potassium two pore domain channel subfamily K member 9 (KCNK9) (human, UniProt Q9NPC2 1-374); experiment: flow cytometry on induced KCNK9-expressing HEK293 cells, anti-human Fc FITC secondary
T1 construct: whole, on cells; also called human KCNK9
From the text: An anti-KCNK9 mouse monoclonal antibody having a VH amino acid sequence of SEQ ID NO: 1 and a VL amino acid sequence of SEQ ID NO: 2 (mu-mAb) was humanized using a method based on Queen et al., Proc. Natl. Acad. Sci. USA, 86: 10029-10033 (1989). The hybridoma antibody was sequenced after amplifying the antibody variable regions by RT-PCR with degenerate primers. The variable regions were fused with the human antibody IgG1 constant regions to produce a chimeric antibody. Antigen binding of the chimeric antibody was confirmed by staining of the KCNK9-expressing cells. HEK293 cells were stably transfected with KCNK9 expression vector under the tetracycline inducible promoter. After induction, the cells were incubated with various concentrations of chimeric KCNK9 antibody for 30 minutes, followed by secondary anti-human Fc FITC conjugate. Chimeric antibody binding was analyzed by flow cytometry.

human FcγIII = human FcγIII (human, UniProt P08637 17-254); experiment: cell-based or functional assay
[2] = biological target: T1, potassium two pore domain channel …; experiment: flow cytometry of KCNK9-expressing cells, anti-human Fc PE secondary
From the text: After antibody sequence analysis and structure modeling, the murine antibody CDRs (SEQ ID NOs: 3-8) were grafted into human antibody VK3-11 and VH1-3 frameworks. Critical murine antibody framework residues that support CDR conformation were identified and introduced into the human frameworks. Five variants of the humanized VH sequences (VH1-5; SEQ ID NOs: 9-13) and three variants of the humanized VL variants (VL1-3; SEQ ID NOs: 14-16) were designed and synthesized. All of the variable regions were cloned into a human IgG1 expression vector. The VHs and VLs were cross-matched to generate 15 humanized KCNK9 antibody clones. All humanized antibodies were produced by transient transfection in 293 cells and purified by Protein A chromatography. Antigen binding of the humanized KCNK9 antibodies was characterized by immunofluorescence staining of KCNK9-expressing cells.

T1 sequence (Q9NPC2 whole entry, the tested form may be a part): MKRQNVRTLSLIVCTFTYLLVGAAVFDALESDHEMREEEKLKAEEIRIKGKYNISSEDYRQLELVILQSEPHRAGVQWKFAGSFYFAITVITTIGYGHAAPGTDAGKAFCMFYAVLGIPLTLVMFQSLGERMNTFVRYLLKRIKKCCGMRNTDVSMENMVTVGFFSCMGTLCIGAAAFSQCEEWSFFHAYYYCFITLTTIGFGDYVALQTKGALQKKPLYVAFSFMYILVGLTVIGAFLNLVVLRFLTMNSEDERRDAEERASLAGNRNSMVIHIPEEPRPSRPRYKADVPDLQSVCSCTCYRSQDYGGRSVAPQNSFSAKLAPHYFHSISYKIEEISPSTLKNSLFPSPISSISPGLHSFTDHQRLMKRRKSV
Chain of human FcγIII (P08637 17-254): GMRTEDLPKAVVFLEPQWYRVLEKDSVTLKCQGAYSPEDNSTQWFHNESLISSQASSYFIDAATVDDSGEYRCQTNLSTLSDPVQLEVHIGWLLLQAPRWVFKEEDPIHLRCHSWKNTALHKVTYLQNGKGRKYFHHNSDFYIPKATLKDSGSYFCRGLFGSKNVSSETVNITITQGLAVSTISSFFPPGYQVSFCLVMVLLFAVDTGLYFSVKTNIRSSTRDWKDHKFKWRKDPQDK

EC50 [1]: ~0.3 µg/mL
B1: chimeric KCNK9 antibody (antibody, V domains shown)
VH: EVQLQQSGPELVKPGASVKTSCKASGYSFTGYYMYWVKQSPEKSLEWIGEINPSSGGTTYNQKFKAKATLTVDKSSSTAYMQLKSLTFEDSAVYYCARSGLRRRFYAMDYWGQGTSVTVSS
VL: DIVLTQSPASLAVSLGQRATVSCRASESVDSFGTTFMHWYQQKPGQPPKLLIYRASNLESGIPARFSGSGSRTDFTLTINPVEADDVATYYCQQSNKDPPTFGGGSKLEIK
notes: Variable regions of the mouse anti-KCNK9 monoclonal antibody (mu-mAb) fused with human antibody IgG1 constant regions; also called chimeric antibody; chimeric KCNK9 monoclonal antibody

ADCC activity (lysis of KCNK9-expressing HEK293 target cells by NK92-3F9 effector cells) (human FcγIII): 100 fold
B2: afucosyl humanized KCNK9 monoclonal antibody AF-H4L3 (antibody, V domains shown)
VH: QVQLVQSGAEVKKPGASVKVSCKASGYSFTGYYMYWVRQAPGQRLEWMGEINPSSGGTTYNQKFKARVTLTVDKSASTAYMELSSLRSEDTAVYYCARSGLRRRFYAMDYWGQGTLVTVSS
VL: EIVLTQSPATLSLSPGERATLSCRASESVDSFGTTFMHWYQQKPGQPPRLLIYRASNLESGIPARFSGSGSRTDFTLTISSLEPEDFATYYCQQSNKDPPTFGGGTKVEIK
modifications: afucosyl N-glycan on the Fc region (made in fut8-/- CHO cells)

ADCC activity (lysis of KCNK9-expressing HEK293 target cells by NK92-3F9 effector cells) (human FcγIII): 100 fold
B3: afucosyl humanized KCNK9 monoclonal antibody AF-H5L2 (antibody, V domains shown)
VH: B2 VH with M48I, V68A
VL: B2 VL with P47A, T89V
modifications: afucosyl N-glycan on the Fc region (made in fut8-/- CHO cells)

binding result [2]: binds
B4: humanized KCNK9 antibody clone H4L3 (antibody, V domains shown)
VH: B2 VH
VL: B2 VL
notes: Variable regions cloned into a human IgG1 expression vector; produced in 293 cells

binding result [2]: binds
B5: humanized KCNK9 antibody clone H5L2 (antibody, V domains shown)
VH: B2 VH with M48I, V68A
VL: B2 VL with P47A, T89V
notes: as for B4
